The target in this assay is Native (wild-type) human factor VIIa (human) (UniProt P08709). The assay can be described thus: cell-based or functional assay.
UniProt P08709, sequence (P08709 213-466, chain 2 of 2, other chains not shown): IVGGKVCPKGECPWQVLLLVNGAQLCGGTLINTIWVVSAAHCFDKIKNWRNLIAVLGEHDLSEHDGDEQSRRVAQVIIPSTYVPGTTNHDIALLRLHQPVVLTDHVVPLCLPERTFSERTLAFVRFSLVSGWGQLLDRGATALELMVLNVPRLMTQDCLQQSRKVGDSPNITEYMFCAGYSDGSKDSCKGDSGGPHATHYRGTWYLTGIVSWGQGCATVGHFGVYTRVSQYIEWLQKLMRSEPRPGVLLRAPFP

As for “Antithrombin III (ATIII) (from UniProt P01008 33-464)”, the Relative first-order rate constants (ratio) of ATIII inhibition (ratio to wt-Factor VIIa) worked out at 1.

The record behind these values is patent US20150044195A1.
